Test system: MS2 coat protein
Experiment: apparent KD of MS2 coat protein; higher = weaker reporter binding
Details: Eterna round: R107
Procedure: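 RNA-MaP round R107: designed RNA switches with theophylline, tryptophan, arginine or FMN aptamers are transcribed on-chip within common flanks. They are titrated with SNAP-549-labelled MS2 coat protein in RNA-MaP buffer (100 mM Tris pH 7.5, 80 mM KCl, 4 mM MgCl2), without ligand or with the indicated ligand. Median apparent KD per design.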

[1] = input ligand: theophylline 20 uM
[2] = input ligand: theophylline 2 mM
[3] = input ligand: tryptophan 2.4 mM

Sequence	apparent KD of MS2 coat protein (input ligand: arginine 13.2 mM) [nM]	apparent KD of MS2 coat protein (input ligand: none) [nM]	apparent KD of MS2 coat protein [1] [nM]	apparent KD of MS2 coat protein [2] [nM]	apparent KD of MS2 coat protein [3] [nM]
ACAUGAGGAUCACCCAUGUUUGUUGUUCCUCGAGGACCGGUACGGCCGCCACUCGAACGAGUGGCGCGCGAGUGCGCACUCGCGC [aOa]	12.7	11.9	18	13.4	11.7
ACAUUUAACUGAAGGAGCGUGAUAAACAUGAGGAUCACCCAUGUACCAAAGAUUUUCAGUUCACAGGUAGGUCGCAGACUAAUGA [JR_ExcArginiB_Sub016]	10.6	11.1	13.8	11.5	10.8
ACGUAAUGCAGAAGGAGCGUCUGAUUUUAACAUGAGGAUCACCCAUGUAAUAUUUAUGGUAGACAGGUAGGUCGCUGAAGUACGA [JR_ExcArginiB_Sub002]	14.8		16.8	15.2	14.8
ACGUAGAAGUCGGCCGCCACUGAUUUCAUGUUCAACAUGAGGAUCACCCAUGUACCUUAUGUUAACAGGACCGGGACGUAUACGA [JR_SSTryptoB_Sub001]	228		303	442	
ACGUCAACCCUUAUGUUGAUGCAAGACGAUACCAGCCUGGAUACAGGCCCUUGGCAGCGUCAACAUGAGGAUCACCCAUGUAAUA [(T)''-(MT)'-(Theo)-(Ms2)]	32.2		261		45.3
ACGUUCGCGGUAUCCAACCGGUUGUACAAACGAGGACCGGUACGGCCGCCACUCGUGAUUGUACAUGAGGAUCACCCAUGUGGCA [theeternabot_exclusion_MS2_Trp_A_28]	18.7		34.1	28.1	
ACUAGUUGUGCAGAUACCAGAUAUGAGGAUCACCCAUAUUUGGGAUGUUCGCAUCUUCCUGUCCCUUGGCAGCUGUACAUCUAGA [Omei Theo B Exc v7]	37.9	37.3	86.7	107	33.9
ACUUGAUACUGAAGGAGCGUCGGAUAAACUCGCACAUGAGGAUCACCCAUGUAUAUGAAUCGGCAGGUAGGUCGCAGUAUCGAGU [#21 Same State - Arginine B]	14.8	15.6	20.4	17.1	15.4
AGAAAGAAACAAAACUCAAGGAGAACCGAAGGAGCGGCGAAAGAGCCAGGUAGGUCGCGGUCCUCAACAUGAGGAUCACCCAUGU	61.6	104	83.5	186	96.6
AGAACAAAACUAAAUAAACAACUGGGUGAUACCAGCACAUGUGCGUGCCCUUGGCAGCAUCCGGCCACAUGAGGAUCACCCAUGU [Inarar]	42.6		95.6		62.7
AGACAUGAGGAUCACCCAUGUAGCAUGGAUACCAGAUGCAGAUUUAUCCCUUGGCAGCUGUGGUAAAGUGAUGCAUUGCUCCUAG [Exclusion - Theophylline A (Freestyle 6)]	18.8	22.6	31	27.1	23.8
AGACAUGAGGAUCACCCAUGUAGUAUGGAUACCAGAUCCAGAUUUAUCCCUUGGCAGCUGUGGUACAGCGAUGGAUUGCUCCUAG [Exclusion - Theophylline A (Freestyle 10)]	33.5		48.5		39.2
AGACGAGCAAUCAACGGGCGUUUCGUGACGCGAGGACCGGUACGGCCGCCACUCGAGUCUGGACAUGAGGAUCACCCAUGUUAUG [theeternabot_exclusion_MS2_Trp_A_46]	32.8	22	23	41	22.2
AGACUUCGCAUAGGAAAACUAUGUGAAGUCCGAGGACCGGUACGGCCGCCACUCGUCCUCACAUGAGGAUCACCCAUGUAAAUAA [#OpenEnded 2 #CuTurnoff #Tail]	22.7			24.5	
AGAGCAUUGACGGCCGCCACUCAUGUCACAUGAGGAUCACCCAUGUGAUGGGUGAUAGCCCGGUCGAGGACCGGGUCAAUGCUCA [Omei Tryp SS B v5]	14.3		29.7	20.6	
AGAGUCUAGUCGGCCGCCACUCAUGUCCGAAGGACAUGAGGAUCACCCAUGUACCAAUGGUACAUGAGGACCGGGACUGGACUCA [Omei Tryp B SS C v3]	34.5	39.9	98.3	559	7.34
AGCACUGUGACGGCCGCCACUAUAUUAGGGUGGUAAGGUUCAUAAAUACAUGAGGAUCACCCAUGUAGGACCGGGUCUCAGUGCA [Omei Trp Exc B A v2]	11.8	12.6	11	13.5	17.1
AGCCCGGGAGCGGCCGCCACUGGAGGCUGAGCGCGACAUGAGGAUCACCCAUGUGUGCCCGGCGUUAGGACCGGGCUCGCGUGGU [#1 Same State - Tryptophan B Attempt #23 (HarryS)]	28.4	29.4	75	79.2	32.2
